Data reported in publication PMC2644404 (Journal of molecular biology, 2008).

Target: T1, Human salivary α-amylase (human, UniProt P0DUB6 16-511)
T1 sequence (looked up): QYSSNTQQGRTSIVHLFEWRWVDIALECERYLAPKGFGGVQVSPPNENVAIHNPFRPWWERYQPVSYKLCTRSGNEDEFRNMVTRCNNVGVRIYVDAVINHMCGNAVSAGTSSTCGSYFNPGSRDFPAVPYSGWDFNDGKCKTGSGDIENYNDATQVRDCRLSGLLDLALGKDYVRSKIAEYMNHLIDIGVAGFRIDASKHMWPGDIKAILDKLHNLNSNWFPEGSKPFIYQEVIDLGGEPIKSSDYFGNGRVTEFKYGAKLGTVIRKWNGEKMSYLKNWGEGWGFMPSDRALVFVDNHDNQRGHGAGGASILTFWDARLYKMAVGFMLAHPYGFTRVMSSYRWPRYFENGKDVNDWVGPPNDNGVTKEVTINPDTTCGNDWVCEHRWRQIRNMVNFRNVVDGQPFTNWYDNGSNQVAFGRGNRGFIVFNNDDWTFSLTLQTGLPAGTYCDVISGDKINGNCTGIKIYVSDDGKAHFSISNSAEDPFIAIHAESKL
Experiment: SPR

B1: Amylase binding protein A (natural protein, S. gordonii, UniProt A8AZZ3 1-195, looked up)
chain: MKKVLLSSVVALTLFAAAAPVFSADEATDAARNNDGAYYLQTQFTNADKVNEYLAQHDGEIRAEAAADPAVVAAKAALDAVEGGSHNYGEVKAAYEAAFNNAFNAVRNKYVQQFQATYNNATEQEGKTYIQGETPEQANARYLKRVGAANNQNPAAEDKGATTPASKEEAKKSEAAAKNAGKAAGKALPKTSAVK
- Ka: 8.79e+07 M⁻¹
- Kd: 11.3 nM
- koff: 0.000307 s⁻¹
- kon: 27000 M⁻¹ s⁻¹
